Source: the supplement of paper PMC12458215
± gives the uncertainty stated by the source.

System: HEK293T
Assay: plasma membrane surface immunostaining intensity (anti-HA, deep receptor scanning) (arbitrary fluorescence units); higher = higher plasma membrane expression

MVLNVYCCFFQISDIQTMKINQTILKEFILVGFSVYPHVQTFLFVVFFCLYLLTLAGNLIIMGLTWVDRSLHTPMYLFLSALSFSETCYTLTIVPKMLEDLLAKDRSISVTGCSLQMCFFLGLGGTNCIILTLMGYDRFLAICNPLRYPLLMTNIVCGQLVASACTAGFFISLTETALIFRDSFCRPNLVKHFFCHMLAVIRLSCIDSNHTEFIITLISVSGLLGTLLLIILTDVFIISTVLRIPSAEGKQKAFTTCASHLTVVIIHFGFASIVYLKPEASGDDTLIAVPYTVITPFLSPIIFSLRNKDMKNAFRRMMGNTVALKK [OR10X1]
plasma membrane surface immunostaining intensity (GPCR class: A (Olfactory)): 233 ± 96

MVLASGNSSSHPVSFILLGIPGLESFQLWIAFPFCATYAVAVVGNITLLHVIRIDHTLHEPMYLFLAMLAITDLVLSSSTQPKMLAIFWFHAHEIQYHACLIQVFFIHAFSSVESGVLMAMALDCYVAICFPLRHSSILTPSVVIKLGTIVMLRGLLWVSPFCFMVSRMPFCQHQAIPQSYCEHMAVLKLVCADTSISRGNGLFVAFSVAGFDMIVIGMSYVMILRAVLQLPSGEARLKAFSTRSSHICVILALYIPALFSFLTYRFGHDVPRVVHILFANLYLLIPPMLNPIIYGVRTKQIGDRVIQGCCGNIP [OR52R1]
plasma membrane surface immunostaining intensity (GPCR class: A (Olfactory)): 173 ± 48

MAGAPGPLRLALLLLGMVGRAGPRPQGATVSLWETVQKWREYRRQCQRSLTEDPPPATDLFCNRTFDEYACWPDGEPGSFVNVSCPWYLPWASSVPQGHVYRFCTAEGLWLQKDNSSLPWRDLSECEESKRGERSSPEEQLLFLYIIYTVGYALSFSALVIASAILLGFRHLHCTRNYIHLNLFASFILRALSVFIKDAALKWMYSTAAQQHQWDGLLSYQDSLSCRLVFLLMQYCVAANYYWLLVEGVYLYTLLAFSVLSEQWIFRLYVSIGWGVPLLFVVPWGIVKYLYEDEGCWTRNSNMNYWLIIRLPILFAIGVNFLIFVRVICIVVSKLKANLMCKTDIKCRLAKSTLTLIPLLGTHEVIFAFVMDEHARGTLRFIKLFTELSFTSFQGLMVAILYCFVNNEVQLEFRKSWERWRLEHLHIQRDSSMKPLKCPTSSLSSGATAGSSMYTATCQASCS [GLP1R]
plasma membrane surface immunostaining intensity (GPCR class: B): 560 ± 52

MKKENQSFNLDFILLGVTSQQEQNNVFFVIFLCIYPITLTGNLLIILAICADIRLHNPMYFLLANLSLVDIIFSSVTIPKVLANHLLGSKFISFGGCLMQMYFMIALAKADSYTLAAMAYDRAVAISCPLHYTTIMSPRSCILLIAGSWVIGNTSALPHTLLTASLSFCGNQEVANFYCDIMPLLKLSCSDVHFNVKMMYLGVGVFSLPLLCIIVSYVQVFSTVFQVPSTKSLFKAFCTCGSHLTVVFLYYGTTMGMYFRPLTSYSPKDAVITVMYVAVTPALNPFIYSLRNWDMKAALQKLFSKRISS [OR1A2]
plasma membrane surface immunostaining intensity (GPCR class: A (Olfactory)): 207 ± 46

MTPLCLNCSVLPGDLYPGGARNPMACNGSAARGHFDPEDLNLTDEALRLKYLGPQQTELFMPICATYLLIFVVGAVGNGLTCLVILRHKAMRTPTNYYLFSLAVSDLLVLLVGLPLELYEMWHNYPFLLGVGGCYFRTLLFEMVCLASVLNVTALSVERYVAVVHPLQARSMVTRAHVRRVLGAVWGLAMLCSLPNTSLHGIRQLHVPCRGPVPDSAVCMLVRPRALYNMVVQTTALLFFCLPMAIMSVLYLLIGLRLRRERLLLMQEAKGRGSAAARSRYTCRLQQHDRGRRQVTKMLFVLVVVFGICWAPFHADRVMWSVVSQWTDGLHLAFQHVHVISGIFFYLGSAANPVLYSLMSSRFRETFQEALCLGACCHRLRPRHSSHSLSRMTTGSTLCDVGSLGSWVHPLAGNDGPEAQQETDPS [NMUR1]
plasma membrane surface immunostaining intensity (GPCR class: A): 2770 ± 700

MATELDKIFLILAIAEFIISMLGNVFIGLVNCSEGIKNQKVFSADFILTCLAISTIGQLLVILFDSFLVGLASHLYTTYRLGKTVIMLWHMTNHLTTWLATCLSIFYFFKIAHFPHSLFLWLRWRMNGMIVMLLILSLFLLIFDSLVLEIFIDISLNIIDKSNLTLYLDESKTLYDKLSILKTLLSLTSFIPFSLFLTSLLFLFLSLVRHTRNLKLSSLGSRDSSTEAHRRAMKMVMSFLFLFIVHFFSLQVANWIFFMLWNNKCIKFVMLALNAFPSCHSFILILGNSKLQQTAVRLLWHLRNYTKTPNPLPL [TAS2R42]
plasma membrane surface immunostaining intensity (GPCR class: Taste): 114 ± 7.7

MSGTKLEDSPPCRNWSSASELNETQEPFLNPTDYDDEEFLRYLWREYLHPKEYEWVLIAGYIIVFVVALIGNVLVCVAVWKNHHMRTVTNYFIVNLSLADVLVTITCLPATLVVDITETWFFGQSLCKVIPYLQTVSVSVSVLTLSCIALDRWYAICHPLMFKSTAKRARNSIVIIWIVSCIIMIPQAIVMECSTVFPGLANKTTLFTVCDERWGGEIYPKMYHICFFLVTYMAPLCLMVLAYLQIFRKLWCRQIPGTSSVVQRKWKPLQPVSQPRGPGQPTKSRMSAVAAEIKQIRARRKTARMLMIVLLVFAICYLPISILNVLKRVFGMFAHTEDRETVYAWFTFSHWLVYANSAANPIIYNFLSGKFREEFKAAFSCCCLGVHHRQEDRLTRGRTSTESRKSLTTQISNFDNISKLSEQVVLTSISTLPAANGAGPLQNW [HCRTR2]
plasma membrane surface immunostaining intensity (GPCR class: A): 5620 ± 490

MQPPPSLCGRALVALVLACGLSRIWGEERGFPPDRATPLLQTAEIMTPPTKTLWPKGSNASLARSLAPAEVPKGDRTAGSPPRTISPPPCQGPIEIKETFKYINTVVSCLVFVLGIIGNSTLLRIIYKNKCMRNGPNILIASLALGDLLHIVIDIPINVYKLLAEDWPFGAEMCKLVPFIQKASVGITVLSLCALSIDRYRAVASWSRIKGIGVPKWTAVEIVLIWVVSVVLAVPEAIGFDIITMDYKGSYLRICLLHPVQKTAFMQFYKTAKDWWLFSFYFCLPLAITAFFYTLMTCEMLRKKSGMQIALNDHLKQRREVAKTVFCLVLVFALCWLPLHLSRILKLTLYNQNDPNRCELLSFLLVLDYIGINMASLNSCINPIALYLVSKRFKNCFKSCLCCWCQSFEEKQSLEEKQSCLKFKANDHGYDNFRSSNKYSSS [EDNRB]
plasma membrane surface immunostaining intensity (GPCR class: A): 794 ± 140

MALLLVSLLAFLSLGSGCHHRICHCSNRVFLCQESKVTEIPSDLPRNAIELRFVLTKLRVIQKGAFSGFGDLEKIEISQNDVLEVIEADVFSNLPKLHEIRIEKANNLLYINPEAFQNLPNLQYLLISNTGIKHLPDVHKIHSLQKVLLDIQDNINIHTIERNSFVGLSFESVILWLNKNGIQEIHNCAFNGTQLDELNLSDNNNLEELPNDVFHGASGPVILDISRTRIHSLPSYGLENLKKLRARSTYNLKKLPTLEKLVALMEASLTYPSHCCAFANWRRQISELHPICNKSILRQEVDYMTQARGQRSSLAEDNESSYSRGFDMTYTEFDYDLCNEVVDVTCSPKPDAFNPCEDIMGYNILRVLIWFISILAITGNIIVLVILTTSQYKLTVPRFLMCNLAFADLCIGIYLLLIASVDIHTKSQYHNYAIDWQTGAGCDAAGFFTVFASELSVYTLTAITLERWHTITHAMQLDCKVQLRHAASVMVMGWIFAFAAALFPIFGISSYMKVSICLPMDIDSPLSQLYVMSLLVLNVLAFVVICGCYIHIYLTVRNPNIVSSSSDTRIAKRMAMLIFTDFLCMAPISFFAISASLKVPLITVSKAKILLVLFHPINSCANPFLYAIFTKNFRRDFFILLSKCGCYEMQAQIYRTETSSTVHNTHPRNGHCSSAPRVTSGSTYILVPLSHLAQN [FSHR]
plasma membrane surface immunostaining intensity (GPCR class: A): 378 ± 44

MQLNNNVTEFILLGLTQDPFWKKIVFVIFLRLYLGTLLGNLLIIISVKTSQALKNPMFFFLFYLSLSDTCLSTSITPRMIVDALLKKTTISFSECMIQVFSSHVFGCLEIFILILTAVDRYVDICKPLHYMTIISQWVCGVLMAVAWVGSCVHSLVQIFLALSLPFCGPNVINHCFCDLQPLLKQACSETYVVNLLLVSNSGAICAVSYVMLIFSYVIFLHSLRNHSAEVIKKALSTCVSHIIVVILFFGPCIFMYTCLATVFPMDKMIAVFYTVGTSFLNPVIYTLKNTEVKSAMRKLWSKKLITDDKR [OR4C16]
plasma membrane surface immunostaining intensity (GPCR class: A (Olfactory)): 162 ± 72

MEGISIYTSDNYTEEMGSGDYDSMKEPCFREENANFNKIFLPTIYSIIFLTGIVGNGLVILVMGYQKKLRSMTDKYRLHLSVADLLFVITLPFWAVDAVANWYFGNFLCKAVHVIYTVNLYSSVLILAFISLDRYLAIVHATNSQRPRKLLAEKVVYVGVWIPALLLTIPDFIFANVSEADDRYICDRFYPNDLWVVVFQFQHIMVGLILPGIVILSCYCIIISKLSHSKGHQKRKALKTTVILILAFFACWLPYYIGISIDSFILLEIIKQGCEFENTVHKWISITEALAFFHCCLNPILYAFLGAKFKTSAQHALTSVSRGSSLKILSKGKRGGHSSVSTESESSSFHSS [CXCR4]
plasma membrane surface immunostaining intensity (GPCR class: A): 814 ± 140

MLLETQDALYVALELVIAALSVAGNVLVCAAVGTANTLQTPTNYFLVSLAAADVAVGLFAIPFAITISLGFCTDFYGCLFLACFVLVLTQSSIFSLLAVAVDRYLAICVPLRYKSLVTGTRARGVIAVLWVLAFGIGLTPFLGWNSKDSATNNCTEPWDGTTNESCCLVKCLFENVVPMSYMVYFNFFGCVLPPLLIMLVIYIKIFLVACRQLQRTELMDHSRTTLQREIHAAKSLAMIVGIFALCWLPVHAVNCVTLFQPAQGKNKPKWAMNMAILLSHANSVVNPIVYAYRNRDFRYTFHKIISRYLLCQADVKSGNGQAGVQPALGVGL [ADORA2B]
plasma membrane surface immunostaining intensity (GPCR class: A): 1240 ± 140

MSANATLKPLCPILEQMSRLQSHSNTSIRYIDHAAVLLHGLASLLGLVENGVILFVVGCRMRQTVVTTWVLHLALSDLLASASLPFFTYFLAVGHSWELGTTFCKLHSSIFFLNMFASGFLLSAISLDRCLQVVRPVWAQNHRTVAAAHKVCLVLWALAVLNTVPYFVFRDTISRLDGRIMCYYNVLLLNPGPDRDATCNSRQVALAVSKFLLAFLVPLAIIASSHAAVSLRLQHRGRRRPGRFVRLVAAVVAAFALCWGPYHVFSLLEARAHANPGLRPLVWRGLPFVTSLAFFNSVANPVLYVLTCPDMLRKLRRSLRTVLESVLVDDSELGGAGSSRRRRTSSTARSASPLALCSRPEEPRGPARLLGWLLGSCAASPQTGPLNRALSSTSS [PTGDR2]
plasma membrane surface immunostaining intensity (GPCR class: A): 6413 ± 49

MVFLSGNASDSSNCTQPPAPVNISKAILLGVILGGLILFGVLGNILVILSVACHRHLHSVTHYYIVNLAVADLLLTSTVLPFSAIFEVLGYWAFGRVFCNIWAAVDVLCCTASIMGLCIISIDRYIGVSYPLRYPTIVTQRRGLMALLCVWALSLVISIGPLFGWRQPAPEDETICQINEEPGYVLFSALGSFYLPLAIILVMYCRVYVVAKRESRGLKSGLKTDKSDSEQVTLRIHRKNAPAGGSGMASAKTKTHFSVRLLKFSREKKAAKTLGIVVGCFVLCWLPFFLVMPIGSFFPDFKPSETVFKIVFWLGYLNSCINPIIYPCSSQEFKKAFQNVLRIQCLCRKQSSKHALGYTLHPPSQAVEGQHKDMVRIPVGSRETFYRISKTDGVCEWKFFSSMPRGSARITVSKDQSSCTTARVRSKSFLQVCCCVGPSTPSLDKNHQVPTIKVHTISLSENGEEV [ADRA1A]
plasma membrane surface immunostaining intensity (GPCR class: A): 2110 ± 600

MTAAIRRQRELSILPKVTLEAMNTTVMQGFNRSERCPRDTRIVQLVFPALYTVVFLTGILLNTLALWVFVHIPSSSTFIIYLKNTLVADLIMTLMLPFKILSDSHLAPWQLRAFVCRFSSVIFYETMYVGIVLLGLIAFDRFLKIIRPLRNIFLKKPVFAKTVSIFIWFFLFFISLPNTILSNKEATPSSVKKCASLKGPLGLKWHQMVNNICQFIFWTVFILMLVFYVVIAKKVYDSYRKSKSKDRKNNKKLEGKVFVVVAVFFVCFAPFHFARVPYTHSQTNNKTDCRLQNQLFIAKETTLFLAATNICMDPLIYIFLCKKFTEKLPCMQGRKTTASSQENHSSQTDNITLG [P2RY13]
plasma membrane surface immunostaining intensity (GPCR class: A): 239 ± 12
